According to paper PMC3575800 (Nucleic Acids Research, 2013):

T1: PH domain of the Tfb1 subunit of TFIIH (Tfb1PH; residues 1-115) (S. cerevisiae, UniProt P32776 1-115)
T1 sequence (looked up): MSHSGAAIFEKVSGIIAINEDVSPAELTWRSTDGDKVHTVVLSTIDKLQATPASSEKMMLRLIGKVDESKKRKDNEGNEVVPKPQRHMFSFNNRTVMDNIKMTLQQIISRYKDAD


Columns and labels:
[1] = molecular target: T1, PH domain of the Tfb1 subunit of TFIIH …; assay: ITC
[2] = molecular target: T1, PH domain of the Tfb1 subunit of TFIIH …; assay: NMR titration

| Binder | Kd [1] [µM] | stoichiometry N [1] | fold reduction of affinity against Rad4 76-115 [1] [fold] | binding result [2] |
| --- | --- | --- | --- | --- |
| TDDSVEEIQSSEEDYDSEEFEDVTDGNEVAGVEDISVEIK (domain or fragment, S. cerevisiae, UniProt P14736 76-115, looked up) [Rad4 residues 76-115 (acidic segment from the N-terminal region of Rad4)] | 0.05 | 1 |  |  |
| TDDSVEEIQSSEEDYDSEEPEDVTDGNEVAGVEDISVEIK (domain or fragment, S. cerevisiae, UniProt P14736 76-115, looked up) [Rad4 residues 76-115, F95P mutant] |  | 1 | 50 |  |
| TDDSVEEIQSSEEDYDSEEFEDPTDGNEVAGVEDISVEIK (domain or fragment, S. cerevisiae, UniProt P14736 76-115, looked up) [Rad4 residues 76-115, V98P mutant] |  | 1 | 24 |  |
| RSEDEGCDSDECEWEEVELKPKNVK (peptide, UniProt P07276 359-383, looked up) [Rad2 residues 359-383 (acidic segment of the spacer region of Rad2)] |  |  |  | binds |
| FYQDEEDDLSDIDWEEVSLDGSL (peptide, UniProt Q06665 41-63, looked up) [Rad34 residues 41-63] | 0.011 | 1 |  |  |
| FYQDEEDDLSDIDSEEVSLDGSL (peptide, UniProt Q06665 41-63, looked up) [Rad34 residues 41-63, W54S mutant] | > 10 |  |  |  |
